According to publication PMC12561415, “ACSS2/AATF Drives Soluble FasL‐Mediated CD8^+ T Cell Apoptosis in Pancreatic Neuroendocrine Tumors” (Advanced Science, 2025):

Target: T1, Recombinant human ACSS2 (human, UniProt Q9NR19 1-701)
T1 construct: Recombinant human ACSS2, immobilised on a CM5 chip for SPR
Experiment: SPR; Biacore 8K, 25 °C, HBS-EP running buffer; ACSS2 amine-coupled to a CM5 chip (5 µg/mL in 10 mM sodium acetate pH 5.5); AATF injected at 12.5-400 nM; multi-cycle, 120 s association, 120 s dissociation, 30 µL/min
Details: both partners purified

T1 sequence (Q9NR19 whole entry): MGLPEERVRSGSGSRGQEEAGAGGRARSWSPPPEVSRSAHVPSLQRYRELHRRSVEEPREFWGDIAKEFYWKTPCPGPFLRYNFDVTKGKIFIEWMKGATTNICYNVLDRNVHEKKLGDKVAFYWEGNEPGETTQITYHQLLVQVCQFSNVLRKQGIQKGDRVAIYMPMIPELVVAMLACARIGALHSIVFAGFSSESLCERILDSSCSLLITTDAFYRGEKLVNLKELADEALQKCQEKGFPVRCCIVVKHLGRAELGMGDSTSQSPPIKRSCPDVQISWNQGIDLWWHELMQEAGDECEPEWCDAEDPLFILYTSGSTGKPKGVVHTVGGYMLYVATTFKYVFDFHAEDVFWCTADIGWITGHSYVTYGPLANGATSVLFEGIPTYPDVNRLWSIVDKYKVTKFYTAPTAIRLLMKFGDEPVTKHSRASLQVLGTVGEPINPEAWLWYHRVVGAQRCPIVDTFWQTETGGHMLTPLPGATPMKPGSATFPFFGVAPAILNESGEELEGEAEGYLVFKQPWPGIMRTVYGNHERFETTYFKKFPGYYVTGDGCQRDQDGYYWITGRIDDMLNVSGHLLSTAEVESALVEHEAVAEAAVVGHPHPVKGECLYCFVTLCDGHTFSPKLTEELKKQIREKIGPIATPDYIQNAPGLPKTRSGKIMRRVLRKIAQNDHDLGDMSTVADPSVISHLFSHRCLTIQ

Kd: 33.3 ± 1.7 nM
B1: Recombinant human AATF (natural protein, UniProt Q9NY61 1-560, looked up)
chain: MAGPQPLALQLEQLLNPRPSEADPEADPEEATAARVIDRFDEGEDGEGDFLVVGSIRKLASASLLDTDKRYCGKTTSRKAWNEDHWEQTLPGSSDEEISDEEGSGDEDSEGLGLEEYDEDDLGAAEEQECGDHRESKKSRSHSAKTPGFSVQSISDFEKFTKGMDDLGSSEEEEDEESGMEEGDDAEDSQGESEEDRAGDRNSEDDGVVMTFSSVKVSEEVEKGRAVKNQIALWDQLLEGRIKLQKALLTTNQLPQPDVFPLFKDKGGPEFSSALKNSHKALKALLRSLVGLQEELLFQYPDTRYLVDGTKPNAGSEEISSEDDELVEEKKQQRRRVPAKRKLEMEDYPSFMAKRFADFTVYRNRTLQKWHDKTKLASGKLGKGFGAFERSILTQIDHILMDKERLLRRTQTKRSVYRVLGKPEPAAQPVPESLPGEPEILPQAPANAHLKDLDEEIFDDDDFYHQLLRELIERKTSSLDPNDQVAMGRQWLAIQKLRSKIHKKVDRKASKGRKLRFHVLSKLLSFMAPIDHTTMNDDARTELYRSLFGQLHPPDEGHGD
notes: Recombinant human AATF, the analyte in SPR; also called Che-1
